From article PMC10499821

B1: unnamed (parent)
chain 1: NNELSPVALRQMSCAAGTTQTACTDDNALAYYNTTKGGRFVLALLSDLQDLKWARFPKSDGTGTIYTELEPPCRFVTDTPKGPKVKYLYFIKGLNNLNRGMVLGSLAATVRLQ
chain 2: AEGIDIGEMPSYDLVL

Variants of: B1
Experiment: fluorescence polarisation saturation
Settings: with partner chain of the complex shown

Question: With chain 1 G100N G104D as the variant, how does the Kd read?
Answer: 20 µM
